This passage reports Kd and EC50 results from patent US20170355769A1 (AbbVie / Abbott, published 2017).

In experiment [1] the target is T1, Human B7-H3-ECD (His tag) (human, UniProt Q5ZPR3 29-461).
T1 construct: SPR analyte; also called huB7-H3; soluble ECD of human B7-H3
T1 sequence: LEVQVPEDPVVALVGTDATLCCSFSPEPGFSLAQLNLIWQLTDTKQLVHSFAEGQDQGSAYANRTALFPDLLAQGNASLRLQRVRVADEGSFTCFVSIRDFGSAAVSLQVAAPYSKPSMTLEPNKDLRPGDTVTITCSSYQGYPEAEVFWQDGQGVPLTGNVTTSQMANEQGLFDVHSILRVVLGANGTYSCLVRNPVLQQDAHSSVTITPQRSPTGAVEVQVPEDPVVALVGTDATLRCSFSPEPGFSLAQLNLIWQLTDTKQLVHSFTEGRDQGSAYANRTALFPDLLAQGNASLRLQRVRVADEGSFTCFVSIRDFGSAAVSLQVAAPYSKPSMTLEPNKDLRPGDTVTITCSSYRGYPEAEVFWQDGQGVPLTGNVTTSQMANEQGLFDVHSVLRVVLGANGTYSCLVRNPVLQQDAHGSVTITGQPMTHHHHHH
The experiment can be described thus: SPR Biacore, naked mAb. From the text: Biacore T200 SPR instruments were used to measure the binding kinetics of human B7-H3 (analyte) binding to various mAbs (ligands). The assay format was Fc-based capture via immobilized anti-mouse (Fc) (Pierce 31170) or immobilized anti-human (Fc) (Pierce 31125). A standard amine coupling protocol was employed to immobilize the capture reagents via primary amines to the carboxy-methyl (CM) dextran surface of CM5 sensorchips (Biacore); capture antibodies were coupled to a level of approximately 5000RU. For binding kinetic measurements the assay buffer was HBS-EP+ (Biacore): 10 mM Hepes, pH7.4, 150 mM NaCl, 3 mM EDTA, 0.05% polysorbate 20. During the assay, all measurements were referenced against the capture surface alone. Each assay cycle consisted of the following steps: 1) Capture of ligand to approximately 50RU; 2) Analyte injection over both reference and test surface, 240 μL at 80 μL/min, after which the dissociation was monitored for 900 seconds at 80 μL/min; 3) Regeneration of capture surface with low pH glycine. […] Data were processed and fit to a 1:1 binding model using Biacore T200 Evaluation Software to determine the binding kinetic rate constants, kₐ (on-rate) and kd (off-rate), and the equilibrium dissociation constant (affinity, KD).
(§1) The parental chAb18 from which the variants were derived was also tested as a comparator.

For experiment [2], the target named is T2, Human full length B7-H3 (human, UniProt Q5ZPR3 29-534).
T2 construct: On 3T12 fibroblasts expressing full length human B7-H3 or on NCI-H1650 cells; signal peptide residues 1-28 stated; also called huB7-H3; CD276
T2 sequence: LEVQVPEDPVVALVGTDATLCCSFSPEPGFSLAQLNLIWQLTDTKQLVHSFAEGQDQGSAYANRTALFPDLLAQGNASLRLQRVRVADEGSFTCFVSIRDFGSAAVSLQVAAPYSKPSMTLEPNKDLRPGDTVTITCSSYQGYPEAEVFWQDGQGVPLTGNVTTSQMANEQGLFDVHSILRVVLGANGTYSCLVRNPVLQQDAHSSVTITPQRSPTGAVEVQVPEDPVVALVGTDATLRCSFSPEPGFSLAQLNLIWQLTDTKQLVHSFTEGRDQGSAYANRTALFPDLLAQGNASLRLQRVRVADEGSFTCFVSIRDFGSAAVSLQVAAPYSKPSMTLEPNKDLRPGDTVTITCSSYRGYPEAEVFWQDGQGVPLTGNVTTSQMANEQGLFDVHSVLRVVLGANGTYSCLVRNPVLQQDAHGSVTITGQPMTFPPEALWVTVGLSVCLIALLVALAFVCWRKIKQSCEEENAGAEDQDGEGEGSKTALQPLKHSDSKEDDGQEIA
Briefly: FACS (Example 6 method). As for the experimental part: (§2) Cells were harvested from flasks when approximately 80% confluent using Gibco® Cell Dissociation Buffer. Cells were washed once in PBS/1% FBS (FACS buffer) then resuspended at 2.5×10⁶ cells/mL in FACS buffer. 100 μL of cells/well were added to a round bottom 96-well plate. 10 μL of a 10× concentration of mAb/ADC (final concentrations are indicated the figures). Wells were washed twice with FACS buffer and resuspended in 50 μL of secondary Ab (AlexaFluor 488) diluted in FACS buffer. The plate was incubated at 4° C. for one hour and washed twice with FACS buffer. Cells were resuspended in 100 μL of PBS/1% formaldehyde and analyzed on a Becton Dickinson LSRII flow cytometer. Data was analyzed using WinList flow cytometry analysis software.
as §1

The target of experiment [3] is T2, Human full length B7-H3. Briefly: FACS, NCI-H1650 cells. As for the experimental part:
To generate purified chimeric antibodies, expression vectors were transiently transfected into HEK293 6E suspension cell cultures in a ratio of 60% to 40% light to heavy chain construct. 1 mg/ml of polyethylenimine (PEI) or 2.6 μL/mL of Expifectamine was used to transfect the cells. Cell supernatants were harvested after five days in shaking flasks, spun down to pellet cells, and filtered through 0.22 μm filters to separate IgG from culture contaminants. Antibody-containing supernatants were purified on Akta Pure using protein A mAb SelectSure. Columns were equilibrated in PBS pH 7.4, supernatants were then passed through the column and a wash was performed with PBS pH 7.4. IgG were eluted with 0.1 M acetic acid pH 3.5 and collected in several aliquots. Fractions containing IgG were pooled and dialyzed in PBS overnight at 4° C.
as §2

Where a chain is given by its changes, count along the chain named.

B1: huAb18v2 (antibody, V domains shown)
VH: EVQLVQSGAEVKKPGSSVKVSCKASGYSFTSYTIHWVRQAPGQGLEWMGYINPNSRNTDYAQKFQGRVTLTADKSTSTAYMELSSLRSEDTAVYYCARYSGSTPYWYFDVWGQGTTVTVSS
VL: DIQLTQSPSFLSASVGDRVTITCRASSSVSYMNWYQQKPGKAPKLLIYATSNLASGVPSRFSGSGSGTEFTLTISSLQPEDFATYYCQQWSSNPLTFGQGTKLEIK
notes: humanized IgG
Broadly, the Kd is the concentration at which binding is half-saturated. Read a high Kd as a looser complex. In the case of B1, the Kd in experiment [1] worked out at 0.69 nM.

B2: huAb18v6 (antibody, V domains shown)
VH: B1 VH
VL: EIVLTQSPDFQSVTPKEKVTITCRASSSVSYMNWYQQKPDQSPKLLIKATSNLASGVPSRFSGSGSGTDFTLTINSLEAEDAATYYCQQWSSNPLTFGQGTKLEIK
notes: humanized IgG
In experiment [1], B2 yielded a Kd of 0.2 nM.

B3: huAb18v6-CZ (antibody, V domains shown)
VH: B1 VH
VL: B2 VL
modifications: synthon CZ on reduced interchain Cys
notes: ADC, DAR 3.4
As usually defined, the EC50 is the midpoint of the concentration-response curve. Low readings indicate a more potent agent, high ones a less potent agent. On to B3, for which the midpoint of the response with Human full length B7-H3 [2], the EC50, lay at 2.09 nM.

B4: huAb18v10 (antibody, V domains shown)
VH: B1 VH
VL: B1 VL with L45P, L46W, G63V, F70H
notes: humanized IgG
Take B4: in experiment [1], the Kd was determined as 0.25 nM.

B5: huAb18v5 (antibody, V domains shown)
VH: B1 VH with A61N, Q65K, G66D, L70I
VL: B2 VL
notes: humanized IgG
Consider B5, for which the affinity in experiment [1], expressed as Kd, was 0.23 nM.

B6: huAb18v9 (antibody, V domains shown)
VH: B1 VH with M48I, A61N, Q65K, G66D, V68T, K74R
VL: B2 VL with L45P, L46W, K48Y, G63V, G65V, F70H
notes: humanized IgG
Regarding B6, the Kd in experiment [1] turned out to be 0.38 nM.

B7: huAb18v4 (antibody, V domains shown)
VH: B1 VH
VL: B1 VL with A42S, L45P, L46W, G63V, G65V, F70H
notes: humanized IgG
As for B7, in experiment [1], the dissociation constant Kd is 0.57 nM.

B8: huAb18v7 (antibody, V domains shown)
VH: B1 VH
VL: B2 VL with L45P, L46W, K48Y, G63V, G65V, F70H
notes: humanized IgG
Regarding B8, in experiment [1], the Kd is 0.4 nM.

B9: huAb18v3 (antibody, V domains shown)
VH: B1 VH with M48I, A61N, Q65K, G66D, V68T, K74R
VL: B1 VL with A42S, L45P, L46W, G63V, G65V, F70H
notes: humanized IgG
B9 had a dissociation constant (Kd) in experiment [1] of 0.23 nM.

B10: huAb18v1 (antibody, V domains shown)
VH: B1 VH with A61N, Q65K, G66D, L70I
VL: B1 VL
notes: humanized IgG
As to B10, in experiment [1], the Kd turned out to be 0.52 nM.

B11: huAb18v9-CZ (antibody, V domains shown)
VH: B1 VH with M48I, A61N, Q65K, G66D, V68T, K74R
VL: B2 VL with L45P, L46W, K48Y, G63V, G65V, F70H
modifications: synthon CZ on reduced interchain Cys
notes: ADC, DAR 2.4
B11 showed an EC50 with Human full length B7-H3 [2] of 1.58 nM.

B12: huAb18v7-CZ (antibody, V domains shown)
VH: B1 VH
VL: B2 VL with L45P, L46W, K48Y, G63V, G65V, F70H
modifications: synthon CZ on reduced interchain Cys
notes: ADC, DAR 4.3
On to B12, for which the EC50 with Human full length B7-H3 [2] came out at 1.92 nM. This EC50 and that of the molecule before are within 1.5-fold of each other.

B13: huAb18v4-CZ (antibody, V domains shown)
VH: B1 VH
VL: B1 VL with A42S, L45P, L46W, G63V, G65V, F70H
modifications: synthon CZ on reduced interchain Cys
notes: ADC, DAR 2.5
In the case of B13, the EC50 in the experiment with Human full length B7-H3 [2] is 0.9 nM.

B14: huAb18v8-CZ (antibody, V domains shown)
VH: B1 VH with M48I, A61N, Q65K, G66D, V68T, K74R
VL: B1 VL with L45P, L46W, G63V, F70H
modifications: synthon CZ on reduced interchain Cys
notes: ADC, DAR 2.6
B14 had an EC50 with Human full length B7-H3 [2] of 1.98 nM.

B15: huAb18v5-CZ (antibody, V domains shown)
VH: B1 VH with A61N, Q65K, G66D, L70I
VL: B2 VL
modifications: synthon CZ on reduced interchain Cys
notes: ADC, DAR 3.4
B15 had an EC50 with Human full length B7-H3 [2] of 2.91 nM.

B16: huAb18v8 (antibody, V domains shown)
VH: B1 VH with M48I, A61N, Q65K, G66D, V68T, K74R
VL: B1 VL with L45P, L46W, G63V, F70H
notes: humanized IgG
In turn, B16 registered a Kd in experiment [1] of 0.25 nM.

B17: chAb11 (antibody, IgG1, V domains shown)
VH: EVKLVESGGGLVQPGGSLRLSCATSGFTFTNYYMSWVRQPPGKALEWLGFIRNKANDYTTEYSASVKGRFTISRDNSQSILYLQMNTLRAEDSATYYCARESPGNPFAYWGQGTLVTVSA
VL: DIVMTQSPSSLTVTAGEKVTMTCKSSQSLLNSGTQKNFLTWYQQKPGQPPKLLIYWASTRESGVPDRFTGSGSGTDFTLTISSVQAEDLAVYFCQNDYIYPLTFGAGTKLELK
notes: chimeric, huIgG1/k
In turn, B17 gave an EC50 with Human full length B7-H3 [3] of 1.12 nM.

B18: chAb2 (antibody, IgG1, V domains shown)
VH: QVQLQQPGAELVKPGASVKLSCKASGYTFTSYWMHWVKQRPGQGLEWIGMIHPDSGTTNYNEKFRSKATLTVDKSSSTAYMQLSSLTSEDSAVYYCAVYYGSTYWYFDVWGTGTTVTVSS
VL: DVVMTQTPLSLPVSLGDQAYISCRSSQSLVHINGNTYLHWYRQKPGQSPKLLIYKVSNRFSGVPDRFSGSGSGTDFTLKISRVEAEDLGVYFCSQSTHFPFTFGSGTKLEIK
notes: chimeric, huIgG1/k
In turn, B18 showed an EC50 in the experiment with Human full length B7-H3 [3] of 0.1 nM. Against the preceding molecule, the EC50 is about 11-fold lower.

B19: chAb6 (antibody, IgG1, V domains shown)
VH: QVQLQQSGAELMKPGASVKISCKATGYTFSRYWIEWVKQRPGHGLEWIGEILPGSGSTNYNEKFKGKATFTADTSSNTAYMQVSSLTSEDSAVHYCARRGYGYVPYALDYWGQGTSVTVSS
VL: EIQMTQTTSSLSASLGDRVTISCRASQDISNSLNWYQQKPDGTVNLLIYYTSRLYSGVPSRFSGSGSGTDYSLTISNLEQEDIATYFCQQGNTLPYTFGGGTKLEIK
notes: chimeric, huIgG1/k
Take B19: the EC50 in the experiment with Human full length B7-H3 [3] was 0.33 nM.

B20: chAb16 (antibody, IgG1, V domains shown)
VH: EVKLLESGGGLVQPGGSLKLSCAASGFDFSRYWMSWVRQAPGKGLEWIGEINPDSSTINYTPSLKDKFIISRDNAKNTLYLQMSKVRSEDTALYYCARPGFGNYIYAMDYWGQGTSVTVSS
VL: B19 VL with E1D, S22N, S32F, N45K, S56L, Y96P
notes: chimeric, huIgG1/k
In the experiment with Human full length B7-H3 [3], B20 came in with an EC50 of 0.27 nM.

B21: chAb4 (antibody, IgG1, V domains shown)
VH: QVQLQQPGAELVKPGASVKLSCKASGYSFTSYWMHWVKQRPGQGLEWIGMIHPNSGSNNYNEKFKSKATLTVDKSSNTAYMQLSSLTSEDSAVYYCARRLGLHFDYWGQGTTLTVSS
VL: DIVMTQSQKFMSTPVGDRVSITCKASQNVGTAVAWYQQKPGQSPKLLIYSASNRYTGVPDRFTGSGSGTDFTLTISNMQSEDLADYFCQQYSSYPYTFGGGTKLEIK
notes: chimeric, huIgG1/k
In the experiment with Human full length B7-H3 [3], B21 registered an EC50 of 0.56 nM.
